The source of these data is patent US20110274694A1 (JULIUS MAXIMILIANS UNIVERSITAET WUERZBURG, published 2011).

The target of this experiment is T1, HA-tagged wild-type Erk2 (HA-Erk2, T188T or AA1-358) (mouse, UniProt P63085 1-358).
T1 construct: Mouse cDNA in a CMV expression plasmid, expressed in transfected cells; also called wt-Erk2; not shown: hemagglutinin (HA) tag
Put plainly: co-precipitation of HA-tagged and Flag-tagged Erk2 after carbachol stimulation. The procedure: HEK293-cells were cultured in the absence or presence of carbachol (100 μM, 6 min) or UK14304 (1 μM, 10 min) before lysis. The inventors prepared ventricular tissue from mouse hearts derived from male 129SvEv (FIG. 1g,h), FVB/N wild-type (WT) or Erk2^T188-transgenic mice (1188T, T188D, T188S, T188A) (FVB/N background) without or after transverse aortic constriction (TAC, see Fig. legends for the duration of TAC) or carbachol-infusion. Control animals were strain-, age- and gender-matched. Lysates of ventricular tissue underwent sonification before immunoblot or immunoprecipitation assays.
FIG. 4 Activation of the entire MAPK-cascade is necessary for interaction of Gβγ with Erk1/2. […] (b) Gene silencing of Raf1 suppressed the carbachol-stimulated interaction of Erk1/2 with Gβ as assessed by co-immunoprecipitation with ERK1/2-specific antibodies (anti-ERK1/2). (c) Inhibition of Mek1/2-activity by PD98059 (50 μM) suppressed the carbachol-stimulated (CCH, 5 min) interaction of HA-Raf1 (Raf1) with Gβ as assessed by co-immunoprecipitation. […] (g, h) Interactions of HA-tagged wild-type Erk2 (AA1-358), truncated Erk2-mutants (AA1-318; AA22-358; AA22-318) and dimerization-deficient Erk2^Δ174-177 with Gβγ as assessed by co-immunoprecipition (g) and carbachol-stimulated inositol phosphate signaling (h) in HEK293-cells. […]

B1: Flag-Erk2^Δ174-177 (enzyme)
chain: MAAAAAAGPEMVRGQVFDVGPRYTNLSYIGEGAYGMVCSAYDNLNKVRVAIKKISPFEHQTYCQRTLREIKILLRFRHENIIGINDIIRAPTIEQMKDVYIVQDLMETDLYKLLKTQHLSNDHICYFLYQILRGLKYIHSANVLHRDLKPSNLLLNTTCDLKICDFGLARVADHTGFLTEYVATRWYRAPEIMLNSKGYTKSIDIWSVGCILAEMLSNRPIFPGKHYLDQLNHILGILGSPSQEDLNCIINLKARNYLLSLPHKNKVPWNRLFPNADSKALDLLDKMLTFNPHKRIEVEQALAHPYLEQYYDPSDEPIAEAPFKFDMELDDLPKEKLKELIFEETARFQPGYRS
notes: also called D174-177; dimerization-deficient Erk2^Δ174-177-mutant; not shown: Flag tag
In the case of B1, the binding result is “no binding”.
